Test results taken from publication PMC11507878.

Target: GST-fused Par-6 CRIB-PDZ (UniProt O97111)
Assay: pull-down

Work on “Par complex ΔCRIB-PDZ (full length aPKC with the Par-6 PB1 domain) (from UniProt A1Z9X0 1-606)” yielded a fold increase of binding with Par-3 PDZ2 against without greater than 20 fold.
